For test [1], the target named is T1, human ALK-1 (full-length, cell surface) (human, UniProt P37023 22-503). As to the kind of experiment: cell-based or functional assay.
Test [2] addresses T2, cynomologus ALK-1/Fc fusion protein (cynomolgus monkey, UniProt Q5RAN0 22-118 (Pongo abelii entry)).
T2 construct: also called cALK-1/Fc; not shown: Fc part and any linker not described
T2 chain: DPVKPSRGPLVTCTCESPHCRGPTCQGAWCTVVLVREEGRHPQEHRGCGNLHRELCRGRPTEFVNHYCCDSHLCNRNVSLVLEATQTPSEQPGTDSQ
The test can be described thus: SPR (BIAcore 3000), cALK-1/Fc immobilized, antibody as analyte.

Test [3] deals with T3, recombinant human ALK-1/Fc fusion protein (human, UniProt P37023 22-118).
T3 construct: range 22-118; Disulfide-linked homodimer; also called hALK-1/Fc; recombinant human ALK-1/Fc chimera; not shown: Fc region of human IgG
As to the kind of experiment: SPR (BIAcore 3000), hALK-1/Fc immobilized, antibody as analyte. For orientation: SPR reads the build-up and loss of mass on a sensor chip optically.

Test [4] concerns the target T4, Cynomolgus monkey ALK-1 (full-length, cell surface) (cynomolgus monkey, UniProt P37023 22-503 (human entry)).
T4 construct: also called Cyno ALK-1
T4 chain: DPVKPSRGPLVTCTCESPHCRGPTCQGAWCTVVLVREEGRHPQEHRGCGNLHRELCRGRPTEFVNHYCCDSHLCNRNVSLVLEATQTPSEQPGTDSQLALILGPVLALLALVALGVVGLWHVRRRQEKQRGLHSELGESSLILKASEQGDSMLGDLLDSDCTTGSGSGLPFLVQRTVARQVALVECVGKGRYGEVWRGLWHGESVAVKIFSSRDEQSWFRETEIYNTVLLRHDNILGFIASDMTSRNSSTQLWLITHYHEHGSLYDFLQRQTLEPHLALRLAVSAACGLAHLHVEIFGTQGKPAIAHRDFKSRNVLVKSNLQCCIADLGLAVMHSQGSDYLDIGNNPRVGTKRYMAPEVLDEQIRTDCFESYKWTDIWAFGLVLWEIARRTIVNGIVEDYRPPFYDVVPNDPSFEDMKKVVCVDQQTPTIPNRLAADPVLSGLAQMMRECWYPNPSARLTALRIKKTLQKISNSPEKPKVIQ
As to the kind of experiment: FACS on 293 cells overexpressing Cyno ALK-1.

Test [5] has as its target T1, human ALK-1 (full-length, cell surface). As to the kind of experiment: FACS on 293 cells overexpressing human ALK-1.
The target of test [6] is T5, monomeric ALK-ECD (human, UniProt P37023 22-118).
T5 construct: also called ALK-1 ECD His-Tag protein; Human ALK-1 ECD His-Tag Protein
As to the kind of experiment: SPR (BIAcore 3000), antibody immobilized, monomeric ALK-ECD as analyte (Example 8, different ECD preparation).

In test [7] the target is T3, recombinant human ALK-1/Fc fusion …. The test can be described thus: SPR (BIAcore 3000) cross-competition on immobilized human ALK-1/Fc chimera.
Test [8] addresses T4, Cynomolgus monkey ALK-1 (full-length, …). As to the kind of experiment: FACS, 293 stable cells overexpressing full-length Cyno ALK-1, anti-human kappa R-PE secondary, geometric mean against mAb concentration.
The target of test [9] is T1, human ALK-1 (full-length, cell surface). The test can be described thus: FACS, 293 stable cells overexpressing full-length human ALK-1, anti-human kappa R-PE secondary, geometric mean against mAb concentration.
Test [10] deals with T4, Cynomolgus monkey ALK-1 (full-length, …). As to the kind of experiment: FACS on 293 cells overexpressing Cyno ALK-1.

Substitutions are numbered along the chain they refer to. In names and notes the source's numbering stands. Like-named read-outs stand apart in the source and are kept apart here.

As usually defined, the Kd is a measure of binding affinity in units of concentration. What is called koff is a measure of how fast the partners let go of each other. One may read the kon as the rate constant with which the complex forms. The EC50 (read off the curve) is the concentration needed to bring the measured effect to its halfway point.

B1: 1.183.1 (antibody, human IgG2, V domains shown)
VH: QVQLQESGPGLVKPSETLSLTCTVSGGSISSYYWSWIRQPPGKGLEWIGYIYYSGSTNYNPSLKSRVTISVDTSKNQFSLKLSSVTAADTAVYYCAREDDSSGCPYFDYWGQGTLVTASS
VL: EIVMTQSPATLSVSPGERATLSCRASQSVSSNLAWYQQKPGQAPRVLIYGASTRATGIPVRFSGSGSGTEFTLTISSLQSEDFAVYYCQQYNNWPFTFGPGTKVDIK
For B1, in test [1], the “ID1 Taqman IC50” value stood at 58 nM and the “pSmad1 Western IC50 nM” value amounted to 17 nM.

B2: 4.62.1 (antibody, V domains shown)
VH: QVQLQESGPGLVKPSQTLSLTCTVSGGSISSGDYYWNWIRQHPGKGLEWIGYIYYSGSTYYNPSLKSRVTISVDTSKNQFSLKLSSVTAADTAVYYCARESTDGMDVWGQGTTVTVSS
VL: not shown
notes: Human IgG2 kappa antibody from a hybridoma
B2: the Avidity in [2] is 19 pM; in test [3] it was 9.6 pM.

B3: 4.24.1 (antibody, human IgG2, V domains shown)
VH: B2 VH with G32N
VL: ENVLTQSPGTLSLSPGERATLSCRASQSVSSNYLAWYQQKPGQAPRLLIYGASSGATGIPDRFSGSGSGTDFTLTISRLEPEDFAVYYCQHYGSSPITFGQGTRLEIK
notes: as for B2
Regarding B3, in [1], the “ID1 Taqman IC50” value amounted to 100 nM and the “pSmad1 Western IC50 nM” value was determined as 82 nM. This molecule also displayed a Kd in test [4] of 3.1 nM. Further, in test [5], binding was put at a Kd of 7.6 nM.

B4: 4.72.1 (antibody, human IgG2, V domains shown)
VH: B2 VH with D33E, N37S, Y54F, V73L
VL: B3 VL with N2I, N32S, Q39R, A52V, G55R, H91Q, P96M
notes: as for B2
Take B4: in test [1], the “ID1 Taqman IC50” value was found to be 21 nM and the “pSmad1 Western IC50 nM” value came out at 35 nM. Also, the Kd in test [4] was determined as 3.8 nM. For the same molecule, the Kd in [5] was found to be 6.4 nM. In test [6], the Kd stood at 0.8 nM, the koff worked out at 2.5e-05 s⁻¹ and the kon was 32000 M⁻¹ s⁻¹.

B5: 1.11.1 (antibody, human IgG2, V domains shown)
VH: QVQLVESGGGVVQPGRSLRLSCAASGFTFSSHGMYWVRQAPGKGLEWVAAIWYDGSNKYYADSVKGRFTISRDNSKNTLYLQMNSLRAEDTAVYYCARDQEQWPDVFDIWGQGTMVTVSS
VL: DIQMTQSPSSLSASVGDRVTITCRASQGIRNYLAWFQQKPGKAPKSLIYGASSLQSGVPSKFSGSGSGTDFTLTISSLQPEDFATYYCQQYNSYPLTFGGGTKVEIK
notes: as for B2
Consider B5, for which the binding result in test [7] was “binds”.

B6: 1.162.1 (antibody, human IgG2, V domains shown)
VH: QVQLQESGPGLVKPSQTLSLICTVSGGSISSGEYYWSWIRQHPGKGLEWIGYIYYSGSTYYNPSLKSRLTISVDTSKNQFSLKLSSVTAADTAVYYCAREGIGAFDIWGQGTMVTVSS
VL: B3 VL with N2I, N32S, G55R, S77I, E80D, H91R
notes: as for B2
For the molecule B6, in test [1], the “ID1 Taqman IC50” value was determined as 75 nM and the “pSmad1 Western IC50 nM” value worked out at 15 nM. In addition, the Kd in test [4] was determined as 3 nM. Further, the Kd in test [5] was determined as 5.6 nM. In test [2], this molecule returned an Avidity of 62 pM. Also, in test [3], the Avidity came out at 18 pM and the dissociation rate constant (koff) was 1.1e-05 s⁻¹.

B7: 1.13.1 (antibody, human IgG2, V domains shown)
VH: QVHLQESGPGLVKPSETLSLTCTVSGGSVSSGDYYWNWIRQPPGKGLEWIGYIYYSGSTNYNPSLKSRITISIDTSKNQFSLKLNSVTAADTALYYCARESVAAFDYWGQGTLVTVSS
VL: B3 VL with N2I, V29I, N32R, K40E, G55R
In the case of B7, in test [1], the “ID1 Taqman IC50” value worked out at 100 nM and the “pSmad1 Western IC50 nM” value was 87 nM.

B8: 4.58.1 (antibody, human IgG2, V domains shown)
VH: B2 VH with D74A, S101A, D103E, M105F, V107Y, T113L
VL: B3 VL with N2I, S31T, N32T, G55R, V86L, S94T, P96S
notes: as for B2
For B8, in [1], the “ID1 Taqman IC50” value worked out at 14 nM and the “pSmad1 Western IC50 nM” value came to 15 nM. Moreover, in [5], the Kd stood at 14 nM.

B9: 1.12.1(rWT) (antibody, human IgG2, kappa)
heavy: QVQLQESGPGLVKPSQTLSLTCTVSGGSMSSGEYYWNWIRQHPGKGLEWIGYIYYSGSTYYNPSLKSRVTISVDTSKNQFSLKLSSVTAADTAVYYCARESVAGFDYWGQGTLVTVSSASTKGPSVFPLAPCSRSTSESTAALGCLVKDYFPEPVTVSWNSGALTSGVHTFPAVLQSSGLYSLSSVVTVPSSNFGTQTYTCNVDHKPSNTKVDKTVERKCCVECPPCPAPPVAGPSVFLFPPKPKDTLMISRTPEVTCVVVDVSHEDPEVQFNWYVDGVEVHNAKTKPREEQFNSTFRVVSVLTVVHQDWLNGKEYKCKVSNKGLPAPIEKTISKTKGQPREPQVYTLPPSREEMTKNQVSLTCLVKGFYPSDIAVEWESNGQPENNYKTTPPMLDSDGSFFLYSKLTVDKSRWQQGNVFSCSVMHEALHNHYTQKSLSLSPGK
light: not shown
notes: mAb 1.12.1 expressed as a recombinant mAb; also called recombinant wild-type mAb 1.12.1
With B9, the 50% effective concentration (EC50 (read off the curve)) in [8] and in [9] was roughly 5 nM throughout.

B10: 1.12.1 (antibody, human IgG2, kappa)
heavy: B9 heavy
light: not shown
notes: Hybridoma-derived human IgG2 kappa antibody; also called mAb 1.12.1 isolated from the hybridoma; hybridoma LN 15916, ATCC PTA-6808
For the molecule B10, the Kd in [4] and in test [10] was 2 nM each time.

B11: 1.12.1(D19A) (antibody, human IgG2, kappa)
heavy: B9 heavy
light: not shown
notes: Recombinant 1.12.1 with the single light-chain mutation D19A
With B11, the Kd in test [10] was 3.8 nM. For the same molecule, the “EC50 (read off the curve)” value in test [8] was roughly 3 nM; in test [9], roughly 5 nM.

B12: 4.38.1 (antibody, human IgG2, V domains shown)
VH: QVQLQESGPGLVKPSQTLSLTCTVSGGSISSGDYYWSWIRQHPGKGLEWIGYIYYSGSTYYNPSLKSRVTISIDTSKNQFSLKLSSVTAADTAVYYCARERDYGGGFDYWGQGTLVTVSS
VL: not shown
notes: as for B2
Turning to B12, the “ID1 Taqman IC50” value in test [1] was 87 nM. In addition, the “pSmad1 Western IC50 nM” value in test [1] came out at 52 nM. In test [5], this molecule yielded a Kd of 9.3 nM. In addition, the Avidity in test [2] is 150 pM; in [3] it was 100 pM.

These data come from US20070065444A1 (Amgen, published 2007).
